Paper PMC9436414

Legend:
Assay in all cases: purified protein
purified protein [1] = substrate: O=C(O)CC(=O)C(=O)O; conditions: 100 mM serine as amine donor, 50 mM HEPES/KOH pH 7.5, 37 °C, pH 7.5
purified protein [2] = substrate: N[C@@H](CO)C(=O)O; conditions: 7 mM oxaloacetate as acceptor, 50 mM HEPES/KOH pH 7.5, 37 °C, pH 7.5
purified protein [3] = substrate: N[C@H](CO)C(=O)O; conditions: DCPIP-coupled assay, 37 °C, exact D-serine reaction mix not stated
purified protein [4] = substrate: C[C@@H](N)C(=O)O; conditions: 200 mM HEPES/KOH pH 7.5, 0.1 mM DCPIP, 1.5 mM PES, 10 mM KCN, 37 °C, pH 7.5

B1: BhcA (Paracoccus denitrificans PD1222) (protein)
chain: MTSQNPIFIPGPTNIPEEMRKAVDMPTIDHRSPVFGRMLHPALEGVKKVLKTTQAQVFLFPSTGTGGWETAITNTLSPGDKVLAARNGMFSHRWIDMCQRHGLDVTFVETPWGEGVPADRFEEILTADKGHEIRVVLATHNETATGVKSDIAAVRRALDAAKHPALLFVDGVSSIGSMDFRMDEWGVDIAVTGSQKGFMLPPGLAIVGFSPKAMEAVETARLPRTFFDIRDMATGYARNGYPYTPPVGLINGLNASCERILAEGLENVFARHHRIASGVRAAVDAWGLKLCAVRPELYSDSVSAIRVPEGFDANLIVSHALETYDMAFGTGLGQVAGKVFRIGHLGSLTDAMALSGIATAEMVMADLGLPIQLGSGVAAAQEHYRQTTAAAQKKAA
For B1, the Km (purified protein [1]) was 0.23 ± 0.03 mM, the kcat (purified protein [1]) was 31.2 s⁻¹ and the kcat/Km (purified protein [1]) was 140000 M⁻¹ s⁻¹. The Km (purified protein [2]) was 7 mM and the kcat (purified protein [2]) was 25.9 s⁻¹.

B2: DadA (Escherichia coli K-12) (protein)
chain: MRVVILGSGVVGVASAWYLNQAGHEVTVIDREPGAALETSAANAGQISPGYAAPWAAPGVPLKAIKWMFQRHAPLAVRLDGTQFQLKWMWQMLRNCDTSHYMENKGRMVRLAEYSRDCLKALRAETNIQYEGRQGGTLQLFRTEQQYENATRDIAVLEDAGVPYQLLESSRLAEVEPALAEVAHKLTGGLQLPNDETGDCQLFTQNLARMAEQAGVKFRFNTPVDQLLCDGEQIYGVKCGDEVIKADAYVMAFGSYSTAMLKGIVDIPVYPLKGYSLTIPIAQEDGAPVSTILDETYKIAITRFDNRIRVGGMAEIVGFNTELLQPRRETLEMVVRDLYPRGGHVEQATFWTGLRPMTPDGTPVVGRTRFKNLWLNTGHGTLGWTMACGSGQLLSDLLSGRTPAIPYEDLSVARYSRGFTPSRPGHLHGAHS
Protein B2 has a Km (purified protein [3]) of 64.77 ± 9.28 mM, a kcat (purified protein [3]) of 0.37 s⁻¹ and a kcat/Km (purified protein [3]) of 5.71 M⁻¹ s⁻¹. For the same protein, the Km (purified protein [4]) was 1.26 ± 0.26 mM, the kcat (purified protein [4]) was 0.81 s⁻¹ and the kcat/Km (purified protein [4]) was 642 M⁻¹ s⁻¹.
